Reference: the DeepSol protein solubility set

Experiment: soluble on expression in E. coli; label from the status in PepcDB or PDB records

Sequence	soluble on expression in E. coli
VQLLESGPGLVKPAQTLSLSCAVSGGSIRSGGYYWSWIRQHPGKGLEWIGYIYHSGNTYYNPSLKSRIAMSVDTSENKFSLRLNSVTAADTAVYYCARLDGYTLDIWGQGTLVTVSSSTKGPSVFPLAPSSKSTSGGTAALGCLVKDYFPEPVTVSWNSGALTSGVHTFPAVLQSSGLYSLSSVVTVPSSSLGTQTYICNVNHKPSNTKVDKRVEP	soluble
VREILSIHVGQCGNQIADSFWRLALREHGLTEAGTLKEGSNAAANSNMEVFFHKVRDGKYVPRAVLVDLEPGVIARIEGGDMSQLFDESSIVRKIPGAANNWARGYNVEGEKVIDQIMNVIDSAVEKTKGLQGFLMTHSIGGGSGSGLGSLILERLRQAYPKKRIFTFSVVPSPLISDSAVEPYNAILTLQRILDNADGAVLLDNEALFRIAKAKLNRSPNYMDLNNIIALIVSSVTASLRFPGKLNTDLSEFVTNLVPFPGNHFLTASFAPMRGAGQEGQVRTNFPDLARETFAQDNFTAAIDWQQGVYLAASALFRGDVKAKDVDENMATIRKSLNYASYMPASGGLKLGYAETAPEGFASSGLALVNHTGIAAVFERLIAQFDIMFDNHAYTHWYENAGVSRDMMAKARNQIATLAQSYRDAS	soluble
VRGLLRVVGVRIEPGDHMLAIRDEIAGAIALGHSQGAVEKEDRDRLLGALDLSERTVEEIMRHRSQIEMIDADKPSAEVIAQVLASPHTRIPLYRGDHENILGIIHAKDLLREVSRLMRTGSTGALDELDILAVAMKPYFVPETTPLDEQMRQFLKRRTHFALVVDEYGALKGLITLEDIIEEIVGEINDEFDIAQEMTLKRADTGDYLVDGAMTI	not soluble
VRMVGLTIETRPDWAFERQIDRMLAFGTTRVELGVQTIFNFIHERVGRGHGVEEIIKATQLLRDAGLKINYHIMPGLPGSNFERDLYVFKTIFEDPRFRPDMLKIYPTLVTRDAPLYAWYKAGLYKPYTTEEAVELLVEAYKIFPKWVRVMRIQRDIPSHLIVAGVKHSNLGQLVFEELVRRGIRPREI	not soluble
VSAADTAEDLPEQFRIRRDKRARLLAQGRDPYPVAVPRTHTLAEVRAAHPDLPIDTATEDIVGVAGRVIFARNSGKLCFATLQDGDGTQLQVMISLDKVGQAALDAWKADVDLGDIVYVHGAVISSRRGELSVLADCWRIAAKSLRPLPVAHKEMSEESRVRQRYVDLIVRPEARAVARLRIAVVRAIRTALQRRGFLEVETPVLQTLAGGAAARPFATHSNALDIDLYLRIAPELFLKRCIVGGFDKVFELNRVFRNEGADSTHSPEFSMLETYQTYGTYDDSAVVTRELIQEVADEAIGTRQLPLPDGSVYDIDGEWATIQMYPSLSVALGEEITPQTTVDRLRGIADSLGLEKDPAIHDNRGFGHGKLIEELWERTVGKSLSAPTFVKDFPVQTTPLTRQHRSIPGVTEKWDLYLRGIELATGYSELSDPVVQRERFADQARAAAAGDDEAMVLDEDFLAALEYGMPPCTGTGMGIDRLLMSLTGLSIRETVLFPIVRPHSN	not soluble
VSFPSSPPALPAIVARFAVGRPVRAVWVNELGGVTFRVDSGMGAGCEFIKVARRGTADFANEARRLRWAAPYLAVPRVLGVGVDGDWAWLHTDALPGLSAVHPRWRASPQVAVPALGAGLRTLHDSLPVHSCPFDWSTASRLAKLAPARRAELGDSPPVDRLVVCHGDACSPNTILDDTGRCCGHVDFGNLGVADRWADLAVATLSLQWNFPDYPGQVRDDEFFAAYGVAPDPARIDYYRRLWQAEDDSSR	soluble
VSIDVPERADLEQVRGRWRNAVAGVLSKSNRTDSAQLGDHPERLLDTQTADGFAIRALYTAFDELPEPPLPGQWPFVRGGDPLRDVHSGWKVAEAFPANGATADTNAAVLAALGEGVSALLIRVGESGVAPDRLTALLSGVYLNLAPVILDAGADYRPACDVMLALVAQLDPGQRDTLSIDLGADPLTASLRDRPAPPIEEVVAVASRAAGERGLRAITVDGPAFHNLGATAATELAATVAAAVAYLRVLTESGLVVSDALRQISFRLAADDDQFMTLAKMRALRQLWARVAEVVGDPGGGAAVVHAETSLPMMTQRDPWVNMLRCTLAAFGAGVGGADTVLVHPFDVAIPGGFPGTAAGFARRIARNTQLLLLEESHVGRVLDPAGGSWFVEELTDRLARRAWQRFQAIEARGGFVEAHDFLAGQIAECAARRADDIAHRRLAITGVNEYPNLGEPALPPGDPTSPVRRYAAGFEALRDRSDHHLARTGARPRVLLLPLGPLAEHNIRTTFATNLLASGGIEAIDPGTVDAGTVGNAVADAGSPSVAVICGTDARYRDEVADIVQAARAAGVSRVYLAGPEKALGDAAHRPDEFLTAKINVVQALSNLLTRLGA	not soluble
VTDASVHPDELDPEYHHHGGFPEYGPASPGAGFGQFVATMRRLQDLAVAADPGDAVWDEAAERAAALVELLSPFEADEGKAPAGRTPGLPGMGSLLLPPWTVTRYGTDGVEMRGSFSRFHVGGNSAVHGGVLPLLFDHMFGMISHAAGRPISRTAFLHVDYRRITPIDVPLIVRGRVTNTEGRKAFVCAELFDSDETLLAEGNGLMVRLLPGQP	soluble
VTDILREIGMIARALDSISNIEFKELSLTRGQYLYLVRVCENPGIIQEKIAELIKVDRTTAARAIKRLEEQGFIYRQEDASNKKIKRIYATEKGKNVYPIIVRENQHSNQVALQGLSEVEISQLADYLVRMRKNVSEDWEFVKKGNTRNY	soluble
VTGAIDPNLFTDAVLQVAAAAGRDETLPMLTGIHMEIDGENVTLTATDRFRLALRRFTWSPANPEAKAKLLIPAKNLSDNARSLDSGSTEPVEIAVGTGENIGAEGLFGIHIDNRQTTTRMLDADFPNVSPLL	not soluble
VVIRVLFRPVSLIPVNNSSTPQSQGPISRRLALTALGFGVLAPNVLVACAGKVTKLAEKRPPPAPRLTFRPADSAADVVPIAPISVEVGDGWFQRVALTNSAGKVVAGAYSRDRTIYTITEPLGYDTTYTWSGSAVGHDGKAVPVAGKFTTVAPVKTINAGFQLADGQTVGIAAPVIIQFDSPISDKAAVERALTVTTDPPVEGGWAWLPDEAQGARVHWRPREYYPAGTTVDVDAKLYGLPFGDGAYGAQDMSLHFQIGRRQVVKAEVSSHRIQVVTDAGVIMDFPCSYGEADLARNVTRNGIHVVTEKYSDFYMSNPAAGYSHIHERWAVRISNNGEFIHANPMSAGAQGNSNVTNGCINLSTENAEQYYRSAVYGDPVEVTGSSIQLSYADGDIWDWAVDWDTWVSMSALPPPAAKPAATQIPVTAPVTPSDAPTPSGTPTTTNGPGG	not soluble
VVTLGYWDIRGLAHAIRLLLEYTETPYQERRYKAGPAPDFDPSDWTNEKEKLGLDFPNLPYLIDGDVKLTQSNAILRYIARKHNMCGETEVEKQRVDVLENHLMDLRMAFARLCYSPDFEKLKPAYLELLPGKLRQLSRFLGSRSWFVGDKLTFVDFLAYDVLDQQRMFVPDCPELQGNLSQFLQRFEALEKISAYMRSGRFMKAPIFWYTALWNNKKE	soluble
VVVGAERTELLLPLLRDKRVALVANATSVVGTEREHLLDNLLRQGVNVVKILGPEHGFRGDADAGATVKDERDVRTGIPIVSLYGKNKKPTPRMLADVDVLLFDMQDVGTRFFTYISTLHYVMEACAEEQKKLIVTDRPNPNDYVDGPILQDDCRSFVGVDPLPILHGLTIGELANMINGEGWLGKKEMKCDLTVVPMSGWKHGQEYALPVKPSPNLPTANAIAWYPSLCLFEATIMSVGRGTDFPFEVLGYPKKVFGSFVFVPRPIRGMDSNPLYKGRHCYGVDLRGEKAPRGLSLQLLIRYYQTARREGIKFVNRKQMFNLLAGTKELAQQIEKGRTEEQIRASWQSDLDKYHKLRKKYLLYPTPTE	soluble
VVVTDMGILAKRSVDGSLDIFVQSLSQGLPIANAKVDVVGRNGLSVAEGFTDLGGHVHLPKLGQLRREKRPLFYRVEKAGDVSFLPIGDWRRELDMSRFDIGGSNESEDPNTLSAYLFTDRGLYRPGETAHVASLVRSQSWGASLDGLPVKMVVTDPRGIDVLDRTFNLDSSGFNSLDFSSTEAAVAGEYTASLSLIRDKHNLTRLGEESFKVRDFEPDRIKVRVTLGATESGTSIGWLKPEEVSAKVQAEQLFGGPAGDRRVTGEMVLSPTDISFKELPGYYFGVQGE	not soluble
WKITDEQRQYYVNQFKTIQPDLNGFIPGSAAKEFFTKSKLPILELSHIWELSDFDKDGALTLDEFCAAFHLVVARKNGYDLPEKLPESLMPK	soluble
WSQNEGKSVIPVQITKENSAYLADALLLDTSKEAQDAVENHSMMLSAKELFPVLETMKQIRQYGDSTDKNYGYRDEGSMFNSGNTAMYINGVWASKLIDEKIDACYAPFPGKNGSTIASSSVCLGYIVGNTGNQETMDASVEFLKYMLSEKVQKRILLETGQMPSSPKIHLEEYKEQIPRMCNAVEAIRGADRIIEVPDNLWTADQLENFRNQIMEVLNGTLDEEQFCTNLYQ	not soluble
YEMSSVGVINLRNMYSTYDPTEVKGKINEGPPFSGSLFYKNIPYGNSSIELKVEMNSVEKANFFSGKRVDIFTLEYSPPSNSNIKKNSYGGITLSDGNRIDKKNIPVNIFIDGVQQKYSYTDISTVSTDKKEVTIQELDVKSRYYLQKHFNIYGFGDVKDFGRSSRFQSGFEEGNIIFHLNSGERISYNMFDTGHGDRESMLKKYSDNKTAYSDQLHIDIYLVKFNK	soluble
YHETVIYEAHVKGMTQTHPSIPPELRGTYAGLAHPVIIDHLNELNVTAVELMPVHQFLHDSRLLDLGLRNYWGYNTFGFFAPHHQYASTRQAGSAVAEFKTMVRSLHEAGIEVILDVVYNHTAEGNHLGPTINFRGIDNTAYYRLMDHDLRFYKDFTGTGNSLNARHPHTLQLIMDSLRYWVIEMHVDGFRFDLASTLARELHDVDRLSAFFDLVQQDPVVSQVKLIAEPWDVGEGGYQVGNFPGLWTEWNGKYRDTVRDYWRGEPATLGEFASRLTGSSDLYEATGRRPSASINFVTAHDGFTLNDLVSYNDKHNEANGENNRDGESYNRSWNCGVEGPTDDPDILALRARQMRNMWATLMVSQGTPMIAHGDEIGRTQYGNNNVYCQDSELSWMDWSLVDKNADLLAFARKATTLRKNHKVFRRRRFFEGEPIRSGDEVRDIAWLTPSGREMTHEDWGRGFDRCVAVFLNGEAITAPDARGERVVDDSFLLCFNAHDHDVEFVMPHDGYAQQWTGELDTNDPVGDIDLTVTATDTFSVPARSLLVLRKTL	soluble
YLFSSTAVASDESRPKIGLVLAGGGAKGAAHIGVLKALEEMHIPVDYITGTSMGAYVGGLYASGMSADEIEAFIDTVDWNSGFVDKVERSERQIRDKEYEDRYQIGTDIGFSFTELKAPKGFVQGQTMAKILRTTSDNIPYLNSFDQLPIPFRAVATDIEKLEPVVLDKGNLAEAMMASMSVPGALPPAEYDGRLLVDGGVVNNMPVDVV	not soluble
YLSDVISSPQFEQAKSPTTVVLGQDIAGEAVIADIAKMPHVLVAGTTGSGKSVGVNVMILSMLYKASPEDLRFIMIDPKMLELSIYEGIPHLLAEVVTDMKDASNALRWCVGEMERRYKLMSALGVRNVKGFNEKLKMAAEAGHPIHDPFWQEGDSMDTEPPLLEKLPYIVVVVDEFADLMMVVGKKVEELIARLAQKARAAGIHLILATQRPSV	not soluble
YLYVYKGVYATDEDVPVNPLTGERLRMGGNTSTQAYFKAGDPIWVDVNGDYIIDEKDKVIVGNSQPRMTGGISINLRYKAFSINTNCSFTLRRDIINKALADRFRAYGTPVAGKVNLTGSGALTPIEAYNFWTEDNIYAQYPNPFDYTRSSIIQPFRYDQTLFMEDGSYFKINGISVAYTIPKKMLDFFRISRCQLNFSMNNIYTFSKYSGINPENVNNLGYDTSGGYPNGRTVTFGVSMDF	not soluble
YPPSMDWRKKGNFVSPVKNQGSCGSCWTFSTTGALESAVAIATGKMLSLAEQQLVDCAQNFNNHGCQGGLPSQAFEYIRYNKGIMGEDTYPYKGQDDHCKFQPDKAIAFVKDVANITMNDEEAMVEAVALYNPVSFAFEVTNDFLMYRKGIYSSTSCHKTPDKVNHAVLAVGYGEENGIPYWIVKNSWGPQWGMNGYFLIERGKNMCGLAACASYPIPLV	soluble
